Experimental findings from publication PMC5443481, “Binding of CIB1 to the αIIb tail of αIIbβ3 is required for FAK recruitment and activation in platelets” (PLoS ONE, 2017) are described below.

The target of test [1] is calcium- and integrin-binding protein 1 (CIB1) (human (endogenous in platelets)) (UniProt Q99828). The test is described as follows: co-IP; anti-CIB1 immunoprecipitates (overnight 4°C, protein G-Sepharose) of pre-cleared 1% Nonidet P-40 lysates of washed human platelets exposed to BSA or immobilized Fg for ~45 min; blots for αIIb, FAK, c-Src; treatments: DMSO, BAPTA-AM (50 μM), cytochalasin D after adhesion.

For test [2], the target named is T1, calcium- and integrin-binding protein 1 (CIB1) (human (endogenous in platelets), UniProt Q99828 1-191).
T1 sequence (looked up): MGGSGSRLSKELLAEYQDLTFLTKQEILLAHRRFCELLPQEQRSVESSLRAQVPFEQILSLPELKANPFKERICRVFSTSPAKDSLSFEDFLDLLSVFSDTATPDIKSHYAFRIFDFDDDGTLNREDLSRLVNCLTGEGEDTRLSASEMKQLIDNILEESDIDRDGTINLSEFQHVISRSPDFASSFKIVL
Nature of the test: cell-based or functional assay.

Bounds are passed on as bounds.

For “integrin αIIb subunit of αIIbβ3 (receptor)”, the fold reduction of co-precipitated αIIb with BAPTA-AM against vehicle in test [1] was 6 fold.
As to KVGFFKRNRPPLEEDDEEGE (peptide, UniProt P08514 1020-1039, looked up) [αIIb cytoplasmic domain peptide], the “c-Src activation (pY418 blot of lysates) in human platelets on immobilized Fg; inhibition by the incorporated αIIb peptide, which blocks CIB1 with αIIb (m1+m2)” value in test [2] was over 8 fold.
